In the supplement of paper PMC10567573:

B1: SMG5 (parent)
chain: FVSIAQSEQESLLQQAQAQFRMAQ
B2: APBB1IP (parent)
chain: LPLPPPPPEPLSQVSMWDQRWQDH
B3: LOXL2 (parent)
chain: HISSCKLGPQVSLDPMKNVTCENG

Variants of: B1
Test: protein stability index of a GFP-peptide fusion (GPS, HEK-293T) (PSI 1-6); higher = more stable
Settings: c terminus: a fixed tail appended
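Further: lentivirally expressed fusions sorted by FACS into six bins by GFP to DsRed ratio, PSI derived from sequencing read proportions per bin multiplied by bin number.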

Variant | protein stability index
V2R | 3.45
V2E | 3.69
V2Q | 2.9
V2G | 3.65
V2K | 3.12
V2P | 3.8
V2H | 2.43
V2T | 3.35
V2C | 2.82
V2D | 3.77
V2F | 2.22
V2I | 2.59
V2W | 2.98
V2A | 3.24
V2M | 2.9
V2N | 4.14
V2L | 2.99
V2S | 3.45
F1W | 2.65

Variant | protein stability index
F1I | 2.96
F1M | 2.97
F1V | 3.88
F1P | 3.77
F1A | 4.58
F1D | 4.28
F1Q | 3.7
F1E | 4.16
F1N | 3.93
F1G | 4.01
F1H | 3.9
F1S | 3.41
F1Y | 2.51
F1C | 2.75
F1K | 3.77
F1T | 4.04
F1L | 3.3
F1R | 3.42

Variants of: B2
Test: as above
Settings: c terminus: a fixed tail appended

Variant | protein stability index
P7E | 4.25
P7K | 3.97
P5M | 3.84
P5W | 3.4
P5K | 3.28

Variants of: B3
Test: as above
Settings: c terminus: a fixed tail appended

Variant | protein stability index
I2A | 4.35
I2W | 3.31
I2N | 3.76
I2P | 3.76
I2Q | 4.25
I2V | 4.21
I2H | 3.53
S12D | 3.72
S12V | 3.92
S12I | 3.68
S12Y | 3.24
S12E | 4.48
V19N | 4.57
V19I | 3.59
V19W | 2.99
V19P | 4.2
K6A | 3.96
K6D | 4.9
K6C | 3.73
D14T | 3.62
D14N | 3.33
D14M | 3.22
D14E | 4.12
D14Q | 3.58
L13Q | 4.28

Variant | protein stability index
L13Y | 3.5
L13D | 4.34
L13V | 4.06
L13P | 4.22
L13C | 3.68
K17P | 4.01
K17F | 2.97
K17V | 3.67
K17A | 3.98
K17D | 4.66
C21I | 3.53
C21E | 4.92
C21T | 4.08
C21D | 4.79
C21G | 4.05
C21L | 3.88
C21H | 4.03
C21S | 4.63
L7S | 3.96
L7C | 3.59
L7W | 2.28
G8W | 1.87
G8L | 4.02
S3A | 3.69
S3T | 3.59

Variant | protein stability index
S3P | 3.99
S3I | 3.39
S3N | 4.24
S3D | 4.39
P9W | 2.2
P9H | 3.73
P9Y | 2.83
P9Q | 3.87
P9E | 4.36
P9T | 3.95
P15T | 4.14
P15W | 3.08
P15A | 3.86
P15D | 4.19
P15F | 3.04
T20M | 3.64
T20G | 3.87
T20Y | 3.58
T20K | 4.26
T20W | 2.31
S4A | 3.65
S4Q | 3.69
S4R | 3.52
S4V | 3.91
S4G | 3.79

Variant | protein stability index
S4N | 3.47
S4H | 3.98
E22V | 3
E22P | 3.47
N18E | 3.82
N18W | 2.88
N18L | 3.12
N18S | 3.2
N23I | 2.9
N23V | 3.53
N23P | 3.63
N23R | 3.58
N23S | 3.91
N23G | 3.85
N23A | 3.53
N23M | 3.26
V11P | 4.34
V11Y | 3.67
V11M | 4.15
V11G | 3.25
V11T | 4.07
V11S | 4.09
H1L | 3.29
H1C | 3.73
H1N | 4.52

Variant | protein stability index
H1M | 3.95
H1D | 4.33
H1S | 4.14
H1P | 4.33
Q10H | 3.52
Q10G | 4.53
Q10E | 4.42
Q10T | 3.36
Q10F | 3.07
G24E | 4.47
G24S | 4.25
G24C | 3.37
G24Q | 4
C5L | 4.32
C5I | 3.87
C5E | 4.95
C5T | 4.54
C5N | 3.29
C5G | 4.17
C5S | 4.66
M16Y | 3.86
M16W | 2.86
M16D | 4.75
M16K | 4.5
M16S | 4.23
